For orientation: Kd means a measure of binding affinity in units of concentration.

Here are results for 37 molecules from PMC10786891, “Massively parallel profiling of RNA-targeting CRISPR-Cas13d”.

Where a chain is given by its changes, count along the chain named. Names may count otherwise.

T1: EsCas13d, nuclease-dead (Eubacterium siraeum, UniProt B0MS50, R295A;H300A;R849A;H854A)
T1 sequence: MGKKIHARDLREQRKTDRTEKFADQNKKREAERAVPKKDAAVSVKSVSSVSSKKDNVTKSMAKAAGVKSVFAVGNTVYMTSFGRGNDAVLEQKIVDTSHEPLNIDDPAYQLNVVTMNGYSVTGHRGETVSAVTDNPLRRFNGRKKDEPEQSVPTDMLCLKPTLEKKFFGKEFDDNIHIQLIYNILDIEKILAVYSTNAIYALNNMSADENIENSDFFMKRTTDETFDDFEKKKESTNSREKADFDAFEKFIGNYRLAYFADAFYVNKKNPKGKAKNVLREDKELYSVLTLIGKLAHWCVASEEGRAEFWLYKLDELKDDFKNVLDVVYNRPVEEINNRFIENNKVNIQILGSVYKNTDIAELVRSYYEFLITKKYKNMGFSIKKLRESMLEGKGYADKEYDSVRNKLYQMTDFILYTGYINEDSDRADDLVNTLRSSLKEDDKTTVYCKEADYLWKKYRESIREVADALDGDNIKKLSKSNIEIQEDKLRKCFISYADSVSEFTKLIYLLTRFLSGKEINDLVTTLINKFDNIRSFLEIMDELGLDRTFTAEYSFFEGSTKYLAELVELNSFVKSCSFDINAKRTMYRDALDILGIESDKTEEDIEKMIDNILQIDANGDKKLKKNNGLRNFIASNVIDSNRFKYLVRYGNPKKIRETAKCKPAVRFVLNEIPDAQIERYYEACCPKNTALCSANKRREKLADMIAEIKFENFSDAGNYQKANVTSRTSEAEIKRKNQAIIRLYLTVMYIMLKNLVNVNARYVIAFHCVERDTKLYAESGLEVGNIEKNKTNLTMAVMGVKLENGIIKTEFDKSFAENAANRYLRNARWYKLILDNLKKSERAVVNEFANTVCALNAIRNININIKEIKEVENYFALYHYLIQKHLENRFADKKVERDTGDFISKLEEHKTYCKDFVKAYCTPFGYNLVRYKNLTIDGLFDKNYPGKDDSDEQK

B1: target 1 MT 5'PFS GUA 3'PFS AAC (mixed)
RNA 1: CACCCGUGCAAAAAUGCAGGGGUCUAAAACUGAGCGGAUAACCUCUCUAUGG
RNA 2: GGGAAUGGAUCCACAUCUACGAAUUCGUACCAUAGAGAGGUUAUCCGCUCAAACAGAUCGGAAGAGCACACGU
B2: target 1 MT 5'PFS GUA 3'PFS AAA (mixed)
RNA 1: B1 RNA 1
RNA 2: B1 RNA 2 with C54A
B3: target 1 MT 5'PFS UGU 3'PFS CAA (mixed)
RNA 1: B1 RNA 1
RNA 2: B1 RNA 2 with G27U, U28G, A29U, A52C, C54A
B4: target 1 insC 3' of 12,insC 3' of 8 (mixed)
RNA 1: B1 RNA 1
RNA 2: GGGAAUGGAUCCACAUCUACGAAUUCGUACCAUAGAGAGGCUUAUCCCGCUCACCGAGAUCGGAAGAGCACACGU
B5: target 1 MT 5'PFS UUA 3'PFS UUA (mixed)
RNA 1: B1 RNA 1
RNA 2: B1 RNA 2 with G27U, A52U, A53U, C54A
B6: target 1 MT 5'PFS UAC 3'PFS CCG (mixed)
RNA 1: B1 RNA 1
RNA 2: B1 RNA 2 with G27U, U28A, A29C, A52C, A53C, C54G
B7: target 1 MT 5'PFS GAG 3'PFS ACU (mixed)
RNA 1: B1 RNA 1
RNA 2: B1 RNA 2 with U28A, A29G, A53C, C54U
B8: target 1 MT 5'PFS ACU 3'PFS UUG (mixed)
RNA 1: B1 RNA 1
RNA 2: B1 RNA 2 with G27A, U28C, A29U, A52U, A53U, C54G
B9: target 1 MT 5'PFS GCG 3'PFS ACC (mixed)
RNA 1: B1 RNA 1
RNA 2: B1 RNA 2 with U28C, A29G, A53C
B10: target 1 MT 5'PFS GCG 3'PFS CUU (mixed)
RNA 1: B1 RNA 1
RNA 2: B1 RNA 2 with U28C, A29G, A52C, A53U, C54U
B11: target 1 MT 5'PFS GGU 3'PFS UCU (mixed)
RNA 1: B1 RNA 1
RNA 2: B1 RNA 2 with U28G, A29U, A52U, A53C, C54U
B12: target 1 MT 5'PFS AAA 3'PFS UCU (mixed)
RNA 1: B1 RNA 1
RNA 2: B1 RNA 2 with G27A, U28A, A52U, A53C, C54U
B13: target 1 MT 5'PFS UCC 3'PFS UAG (mixed)
RNA 1: B1 RNA 1
RNA 2: B1 RNA 2 with G27U, U28C, A29C, A52U, C54G
B14: target 1 MT 5'PFS UAU 3'PFS UUC (mixed)
RNA 1: B1 RNA 1
RNA 2: B1 RNA 2 with G27U, U28A, A29U, A52U, A53U
B15: target 1 MT 5'PFS AAU 3'PFS UGA (mixed)
RNA 1: B1 RNA 1
RNA 2: B1 RNA 2 with G27A, U28A, A29U, A52U, A53G, C54A
B16: target 1 MT 5'PFS UUA 3'PFS UUC (mixed)
RNA 1: B1 RNA 1
RNA 2: B1 RNA 2 with G27U, A52U, A53U
B17: target 1 C6G,U8A (mixed)
RNA 1: B1 RNA 1
RNA 2: B1 RNA 2 with U44A, C46G, A52C, A53C, C54G
B18: target 1 insA 3' of 13,insU 3' of 7 (mixed)
RNA 1: B1 RNA 1
RNA 2: B4 RNA 2 with G40A, C41G, C47U
B19: target 1 MT 5'PFS GCG 3'PFS CUC (mixed)
RNA 1: B1 RNA 1
RNA 2: B1 RNA 2 with U28C, A29G, A52C, A53U
B20: target 1 MT 5'PFS GCG 3'PFS CUA (mixed)
RNA 1: B1 RNA 1
RNA 2: B1 RNA 2 with U28C, A29G, A52C, A53U, C54A
B21: target 1 MT 5'PFS CAC 3'PFS CCG (mixed)
RNA 1: B1 RNA 1
RNA 2: B1 RNA 2 with G27C, U28A, A29C, A52C, A53C, C54G
B22: target 1 MT 5'PFS UCC 3'PFS UAU (mixed)
RNA 1: B1 RNA 1
RNA 2: B1 RNA 2 with G27U, U28C, A29C, A52U, C54U
B23: target 1 MT 5'PFS UUA 3'PFS UUG (mixed)
RNA 1: B1 RNA 1
RNA 2: B1 RNA 2 with G27U, A52U, A53U, C54G
B24: target 1 MT 5'PFS GAG 3'PFS ACG (mixed)
RNA 1: B1 RNA 1
RNA 2: B1 RNA 2 with U28A, A29G, A53C, C54G
B25: target 1 MT 5'PFS GUG 3'PFS CUG (mixed)
RNA 1: B1 RNA 1
RNA 2: B1 RNA 2 with A29G, A52C, A53U, C54G
B26: target 1 MT 5'PFS GUA 3'PFS AAU (mixed)
RNA 1: B1 RNA 1
RNA 2: B1 RNA 2 with C54U
B27: target 1 MT 5'PFS ACU 3'PFS UUA (mixed)
RNA 1: B1 RNA 1
RNA 2: B1 RNA 2 with G27A, U28C, A29U, A52U, A53U, C54A
B28: target 1 MT 5'PFS GGC 3'PFS GCU (mixed)
RNA 1: B1 RNA 1
RNA 2: B1 RNA 2 with U28G, A29C, A52G, A53C, C54U
B29: target 1 MT 5'PFS GCG 3'PFS CUG (mixed)
RNA 1: B1 RNA 1
RNA 2: B1 RNA 2 with U28C, A29G, A52C, A53U, C54G
B30: target 1 MT 5'PFS UAU 3'PFS UUA (mixed)
RNA 1: B1 RNA 1
RNA 2: B1 RNA 2 with G27U, U28A, A29U, A52U, A53U, C54A
B31: target 1 MT 5'PFS AAA 3'PFS UCG (mixed)
RNA 1: B1 RNA 1
RNA 2: B1 RNA 2 with G27A, U28A, A52U, A53C, C54G
B32: target 1 MT 5'PFS GAC 3'PFS CCG (mixed)
RNA 1: B1 RNA 1
RNA 2: B1 RNA 2 with U28A, A29C, A52C, A53C, C54G
B33: target 1 MT 5'PFS UCG 3'PFS ACA (mixed)
RNA 1: B1 RNA 1
RNA 2: B1 RNA 2 with G27U, U28C, A29G, A53C, C54A
B34: target 1 MT 5'PFS UAU 3'PFS UUU (mixed)
RNA 1: B1 RNA 1
RNA 2: B1 RNA 2 with G27U, U28A, A29U, A52U, A53U, C54U
B35: target 1 MT 5'PFS UCC 3'PFS AGA (mixed)
RNA 1: B1 RNA 1
RNA 2: B1 RNA 2 with G27U, U28C, A29C, A53G, C54A
B36: target 1 MT 5'PFS GCC 3'PFS CCU (mixed)
RNA 1: B1 RNA 1
RNA 2: B1 RNA 2 with U28C, A29C, A52C, A53C, C54U
B37: target 1 MT 5'PFS GGA 3'PFS AGG (mixed)
RNA 1: B1 RNA 1
RNA 2: B1 RNA 2 with U28G, A53G, C54G

The data set concerns the target T1, EsCas13d, nuclease-dead. As to the kind of experiment: crRNA (strand 1, pre-loaded); Mg2+; 40 mM Tris-HCl pH 7.5, 150 mM NaCl, 6 mM MgCl2, 1 mM DTT, 0.1% Tween-20, 0.2 mg/ml BSA; 25 C; 10 min per concentration, then washed. Particulars: tags: His6-TwinStrep-SUMO cleaved; N-terminal SNAP kept (SNAP-Surface 488); label: 3' end held by stalled T7 RNA polymerase.
In turn, B1 registered a Kd of 20.4 ± 1.55 nM.

Regarding B2, the affinity, expressed as Kd, was 26.4 ± 3.45 nM.

The molecule B3 returned a Kd of about 90 nM.

B4 displayed a Kd of 32.1 ± 2.8 nM.

The molecule B5 had a Kd of 30.5 ± 5 nM.

In turn, B6 yielded a Kd of 14.5 ± 6 nM.

B7 gave a Kd of 24.9 ± 4.75 nM.

B8 yielded a Kd of 46 ± 15 nM. Compared with the last molecule, the Kd is about 1.8-fold higher.

As to B9, binding was characterised by a dissociation constant (Kd) of 20 ± 8.5 nM.

For the molecule B10, binding was characterised by a dissociation constant (Kd) of 15.6 ± 3.75 nM.

The molecule B11 registered a Kd of 34 ± 8.5 nM.

As for B12, the Kd was 25 ± 5.5 nM.

B13 had a Kd of 49 ± 22.5 nM.

In turn, B14 gave a Kd of 22.5 ± 6 nM.

The molecule B15 gave a Kd of 61 ± 17 nM.

B16 registered a Kd of 17.5 ± 3.9 nM.

With B17, the Kd came to 13.8 ± 0.6 nM.

As for B18, the Kd came to 11.2 ± 0.8 nM.

Consider B19, for which the Kd was about 43 nM.

Regarding B20, the affinity, expressed as Kd, was 15.7 ± 3.15 nM.

In turn, B21 came in with a Kd of 9.7 ± 2.45 nM.

Turning to B22, the Kd is about 12.6 nM.

Molecule B23 returned a Kd of 11.8 ± 1.2 nM.

Turning to B24, the Kd is 32 ± 8.5 nM.

Molecule B25 came in with a Kd of 10.3 ± 0.6 nM. Against the preceding molecule, the Kd is about 3.1-fold lower.

In turn, B26 displayed a Kd of 17.8 ± 1.5 nM.

B27 came in with a Kd of 52.5 ± 21 nM.

B28: binding was put at a Kd of 7.25 ± 1.75 nM. Against the preceding molecule, the Kd is about 7.2-fold lower.

B29 came in with a Kd of 10.7 ± 1.8 nM.

The molecule B30 gave a Kd of 18.1 ± 3.15 nM.

In turn, B31 had a Kd of 15.2 ± 3.7 nM.

Consider B32, for which the Kd is 13.8 ± 3 nM.

B33 had a Kd of 36 ± 8 nM.

As to B34, the Kd amounted to 31 ± 7.5 nM.

B35 came in with a Kd of about 60 nM.

Regarding B36, the affinity, expressed as Kd, was 8.9 ± 3 nM.

The molecule B37 had a Kd of 31 ± 4.5 nM.
